Source: paper PMC9779223
Values belong to the substance of their own block, whether it stands above or below them.

Tests used:
P09493 [1] = experiment: viscosity measurement; falling ball microviscometer, 20 °C; Tpm 1.0 mg/mL (15 µM) with TnT1 at molar ratio 1/1; 30 mM HEPES-Na pH 7.3, 100 mM NaCl, 4 mM DTT; excess viscosity over buffer; conditions: other: viscosity measurement
P09493 [2] = experiment: viscosity measurement; falling ball microviscometer, 20 °C; Tpm 1.0 mg/mL (15 µM), without TnT1; 30 mM HEPES-Na pH 7.3, 100 mM NaCl, 4 mM DTT; excess viscosity over buffer as read-out of the end-to-end overlap junction of Tpm dimers; conditions: other: viscosity measurement
[3] = target: Human Tpm1.1 (α-Tpm) A277V (human) (UniProt P09493); experiment: ITC; MicroCal PEAQ-ITC, 25 °C; 30 mM HEPES-Na pH 7.3, 100 mM NaCl, 1 mM DTT; sample in the cell 30 to 60 µM, ligand in the syringe 200 to 700 µM; one set of binding sites
Sequence of Human Tpm1.1 (α-Tpm) A277V (human) (P09493 other isoform, or with tags, fused parts or gaps A277V | A277V): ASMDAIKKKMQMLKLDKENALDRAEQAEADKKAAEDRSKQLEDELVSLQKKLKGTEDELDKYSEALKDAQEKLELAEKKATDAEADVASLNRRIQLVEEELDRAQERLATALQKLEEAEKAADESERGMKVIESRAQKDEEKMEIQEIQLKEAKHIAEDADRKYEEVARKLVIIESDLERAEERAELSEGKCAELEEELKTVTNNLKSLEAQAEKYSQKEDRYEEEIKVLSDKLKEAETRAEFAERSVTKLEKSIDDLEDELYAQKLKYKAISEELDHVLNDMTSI

[4] = target: Human Tpm1.1 (α-Tpm) I284V (human) (UniProt P09493); experiment: as above
Sequence of Human Tpm1.1 (α-Tpm) I284V (human) (P09493 other isoform, or with tags, fused parts or gaps I284V | I284V): as the sequence (P09493 other isoform, or with tags, fused parts or gaps A277V | A277V) above, with V279A, I286V counted along it

[5] = target: Human Tpm1.1 (α-Tpm) K15N (human) (UniProt P09493); experiment: as above
Sequence of Human Tpm1.1 (α-Tpm) K15N (human) (P09493 other isoform, or with tags, fused parts or gaps K15N | K15N): as the sequence (P09493 other isoform, or with tags, fused parts or gaps A277V | A277V) above, with K17N, V279A counted along it

[6] = target: Human Tpm1.1 (α-Tpm) M281T (human) (UniProt P09493); experiment: as above
Sequence of Human Tpm1.1 (α-Tpm) M281T (human) (P09493 other isoform, or with tags, fused parts or gaps M281T | M281T): as the sequence (P09493 other isoform, or with tags, fused parts or gaps A277V | A277V) above, with V279A, M283T counted along it

[7] = target: Human Tpm1.1 (α-Tpm) M8R (human) (UniProt P09493); experiment: as above
Sequence of Human Tpm1.1 (α-Tpm) M8R (human) (P09493 other isoform, or with tags, fused parts or gaps M8R): as the sequence (P09493 other isoform, or with tags, fused parts or gaps A277V | A277V) above, with M10R, V279A counted along it

[8] = target: Human Tpm1.1 (α-Tpm) WT (human) (UniProt P09493); experiment: as above
Sequence of Human Tpm1.1 (α-Tpm) WT (human) (P09493 other isoform, or with tags, fused parts or gaps): as the sequence (P09493 other isoform, or with tags, fused parts or gaps A277V | A277V) above, with V279A counted along it

[9] = target: Premixed complex of Tpm WT 1–133 and Tpm WT 134–284 (human) (UniProt P09493); experiment: as above
Sequence of Premixed complex of Tpm WT 1–133 and Tpm WT 134–284 (human) (P09493 other isoform, or with tags, fused parts or gaps, chain 1 of 2): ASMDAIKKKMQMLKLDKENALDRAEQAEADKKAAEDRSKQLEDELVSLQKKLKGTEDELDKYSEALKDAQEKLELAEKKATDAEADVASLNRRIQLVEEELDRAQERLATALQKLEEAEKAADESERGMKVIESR
Sequence of Premixed complex of Tpm WT 1–133 and Tpm WT 134–284 (human) (P09493 134-284, chain 2 of 2): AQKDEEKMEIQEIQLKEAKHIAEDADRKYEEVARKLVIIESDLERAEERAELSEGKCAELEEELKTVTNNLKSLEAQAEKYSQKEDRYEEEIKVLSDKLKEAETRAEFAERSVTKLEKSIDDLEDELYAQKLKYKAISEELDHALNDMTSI

[10] = target: Tropomyosin C-terminal fragment Tpm WT 134–284 (human) (UniProt P09493); experiment: as above
Sequence of Tropomyosin C-terminal fragment Tpm WT 134–284 (human) (P09493 134-284): as the sequence (P09493 134-284, chain 2 of 2) above

[11] = target: Premixed complex of TnT1 and Tpm WT 134–284 (human) (UniProt P09493); experiment: as above

Substance: Human Tpm1.1 (α-Tpm) WT
excess viscosity (P09493 [1]): 0.992 ± 0.001 mPa·s
excess viscosity (P09493 [2]): 0.125 mPa·s

Kd [3]: 2510 nM
dH [3]: -10.6 kcal/mol
stoichiometry N [3]: 1.03
Kd [4]: 1890 nM
dH [4]: -14.4 kcal/mol
stoichiometry N [4]: 0.775
Kd [5]: 1300 nM
dH [5]: -12.1 kcal/mol
stoichiometry N [5]: 1.05
Kd [6]: 1520 nM
dH [6]: -8.83 kcal/mol
stoichiometry N [6]: 0.857
Kd [7]: 1900 nM
dH [7]: 2.51 kcal/mol
stoichiometry N [7]: 1.15
Kd [8]: 910 nM
dH [8]: -9.69 kcal/mol
stoichiometry N [8]: 0.629
Kd [9]: 900 nM
dH [9]: -7.7 kcal/mol
stoichiometry N [9]: 0.69
Kd [10]: 1900 nM
dH [10]: 2.1 kcal/mol
stoichiometry N [10]: 1.06
Substance: Human adult cardiac troponin T fragment TnT1 (TnT1–158) (domain or fragment)

Kd [11]: 1700 nM
dH [11]: -6.5 kcal/mol
stoichiometry N [11]: 1.07
Substance: Tropomyosin N-terminal fragment Tpm WT 1–133 (from UniProt P09493 1-133) (domain or fragment)
